# Assay: soluble on expression in E. coli; label from the status in PepcDB or PDB records
row,Sequence,soluble on expression in E. coli
1,PTILVVGDLMIDHYIWGECERISPEAPVQVIDVKRETKTLGGACNVMSNLIALEASVLSCGVVGEDLAGRELLGFLQELGMESKGIITQKGRPTTQKSRIIASNQQVVRVDWENKSPISEESEEAMIAYIRSKLSLCDAVILSDYGKGVLTPRVCQTIIQMAKTLQKRVLVDPKGRDYSKYRGASLLTPNKKEAKEATGIEINDEASLKKALECLKKECELEFSVITLSEDGIGIFDQALERIPTIAQEVYDVTGAGDTVIASLAYGLSLGYPLRECALFANAAAAVVVGKIGSATATHGEIAEYLHS,not soluble
2,PTSSTTAALVMGDALAVALLEARGFTAEDFALSHPGGALGRKLLLRVNDIMHTGDEIPHVGLQATLRDALLEITRKNLGMTAICDDDMNIIGIFTDGDLRRVFDTGVDMRDASIADVMTRGGIRIRPGTLAVDALNLMQSRHITCVLVADGDHLLGVVHMHDLLRA,soluble
3,PVFILGHWRSGTTFVHNVFSCDSHFGYNTTYQTVFPHLMMWGQPFFKKNMSWLMPDKRPTDNMELAVDLPQEEEFALANMMPYTYYNFWFLPRYQQEYADKYLLFDTISEAELKVFEETFTKLIKISLWNTQGTQFLSKNPPHTGRVKELVKMFPNAKFIYLMRNPYTVFESTRSFFTNTIQPLKLQDITPAELENNILSIYAKLYHKYEADKQFIPEGNLMEVKFEDFEADAMGMTENIYHALDIPGFAEARGSIEKYVGGKKGYKKNKYKYDDRTVQLVQDHWDFALKQWDYSL,not soluble
4,PWLENVQVQLSDLFSELKYNSVSGSGKIGIMASGVSALYVKEAVKGFEELFTLFRVGTVYPFPEKAALSFLKGIEKLIVVEELDPYLEEQALQLIGRAHLPADVYGKKNGFFPVSGEYNVDIIIDCINKVLAELGETSRLSHSAPAIPRSGLPPLPVRAPTLCAGCMHRTVFYAFKQASKQLKKDFQVETIFSGDIGCYTLGNAHPLNMVDTCLCMGAGMSIAGGLSRANPGVKQVAFIGDSTFFHSGIPAVINAVYNGSDVTLAVLDNRTTAMTGHQTHPGIGVTVLGSPSKAVDISDVIRSCGVELVRSVDIDSLENSLEGCIEAAKEAVEFKGPSAVVFKGKCVGITKPVIRFEIDTESCTGCGLCVKQLGCPALFLPAGEEKPVIQDSCSGCGLCAQVCPSGAIIETGVK,not soluble
5,PYKASKSRGLVVSNIYSRYDINELESGLMRVSQNKYSPDNYLFQEGQYLDKETLEKWLDRKSEKNPNGLNPESNGDGKDRKPIYLAHILEQDYLKQTDKDTVALGGISIALAMNSVDYYQKEQYGDTFEQEISDSDLLAQGKEMSGTVLNRIRQTKGLENVPVTIAIYKQGPRDAVAPGNFLTYATANGDSLSSWKDVEEKNYVLPSTESAKDHKTDNDNFLNFKKAIEDYYPNFTGVVGRARYEDGQLAELSIDIPLQFYGQAEIIGFTQYVTDLVGQHIPKTADLQVNISTSDGPAALITRKANEDAATA,not soluble
6,QAGFNDLFTINNTPAKTATEIYLENFPEQRNPLKSTGVNIVFKAPEGHTLAEPENKAAMDSVVQAIQDNLEGLTNTQRFGNPVELNPKLQQGVIDLMTQRGVPEENARADAANLSLITPDETIGYTTFDIDVPMPADVSDAQRQAITDAMNLGREKGLTVEAGGAGFGDPIVIEETSE,not soluble
7,QCTGGADCTSCTGACTGCGNCPNAVTCTNSQHCVKANTCTGSTDCNTAQTCTNSKDCFEANTCTDSTNCYKATACTNSSGCPGH,soluble
8,QDKITVTSEKPVAAADVPADAVVVGIEKMKYLTPEVTIKAGETVYWVNGEVMPHNVAFKKGIVGEDAFRGEMMTKDQAYAITFNEAGSYDYFCTPHPFMRGKVIVE,soluble
9,QFMKPFISEKSSKSLEIPLGFNEYFPAPFPITVDLLDYSGRSWTVRMKKRGEKVFLTVGWENFVKDNNLEDGKYLQFIYDRDRTFYVIIYGHNMCS,not soluble
10,QGDLLLAQYTRAYGYYNPAYAGMRKEIFITALHNRQWEGMPRSPKSFVVLADAPIRFFDREHGVGVRVVTETRGLFAINELMGQYAFKQKLFGGDLSVALQAGLVNTAFDGTKVELETENDPAIPLTKVSGKAFDIGAGIYYRRKE,not soluble
11,QIVLTQSPAIMSASLGDRVTMTCTASSSVSSSYLHWYQQKPGSSPKLWIYSTSNLASGVPARFSGSGSGTSYSLTISSMEAEDAATYYCHQFHRSLTFGSGTKLE,soluble
12,QLHLSLPSDTQASYSSTQRKQAEIMAEGFGPGINSPFLVVADAHSVDENAEILEPLIRAQNPAPGERKQAAANAAYQYIIQKYSVTPDVKHVQIVGLSKDGLAAQLLLTPESSPEDDVTKQLIDALLIKQDEVNNATGIRSGITGLIPVQQDVTNR,not soluble

# Reference: the DeepSol protein solubility set
